In the RNAGym collection of RNA variant scans (doi:10.1073/pnas.2313332121):

B1: TPR t1 (parent)
chain: GACCAAUCUGCCCUCAGAGCUCGAGAACAUCUUCGGAUGCAGAGGAGGCAGGCUUCGGUGGCGCGAUAGCGCCAACGUCCUCAACCUCCAAUGCAUCCCACCACAUGAUGAUGCCUGAAGAGCCUUGGUUUUUUG

Variants of: B1
Experiment: polymerase ribozyme fitness, log enrichment relative to wild type (log ratio); higher = more active; in vitro selection for triplet polymerase activity
Procedure, shortened: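 In triplicate, a single round of in vitro selection was run on each mutant library, PCR-built and transcribed, covering one subunit of a heterodimeric triplet polymerase ribozyme. Frozen incubation at −7 °C followed annealing with a biotinylated primer, partner subunit and triplets, and extended constructs were then gel-excised, streptavidin-captured and taken through RT-PCR. Fitness is the logarithm of genotype enrichment over wild-type enrichment, from inverse-variance-weighted replicate averages of Illumina-sequenced inputs and outputs. […] only genotypes with ≥10 input reads and ≥1 read per output were kept.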

Variant	polymerase ribozyme fitness (log ratio)
GACCAAUCUGCCCUCAGAGCUCGAGAACAUCUUCGGAUGCAGAGGAGGCAGGCUUCGGUGGCGCGAUAGCGGCAACGUCCUCAACCUCCAAUGCAUCCCACCACAUGAUGAUGCCUGAAGAGCCUUAGUUUUUUG	-1.26
GACCAAUCUGCCCUCAGAGCUCGAGAACAUCUUCGGAUGCAGAGGAGGCAGGCUUCGGUGGCGCGAUAGCGGCAACGUCCUCAACCUCCAAUGCAUCCCACCACAUGAUGAUGCCUGAAGAGCCUUCGUUUUUUG	-0.368
GACCAAUCUGCCCUCAGAGCUCGAGAACAUCUUCGGAUGCAGAGGAGGCAGGCUUCGGUGGCGCGAUAGCGGCAACGUCCUCAACCUCUAAUGCAUCCCACCACAUGAUGAUGCCUGAAGAGCCUUGGUUUUUUG	-0.34
GACCAAUCUGCCCUCAGAGCUCGAGAACAUCUUCGGAUGCAGAGGAGGCAGGCUUCGGUGGCGCGAUAGCGGCAACGUCCUCAACCUCCAAUGCAUCCCACCACAUAAUGAUGCCUGAAGAGCCUUGGUUUUUUG	-4.9
GACCAAUCUGCCCUCAGAGCUCGAGAACAUCUUCGGAUGCAGAGGAGGCAGGCUUCGGUGGCGCGAUAGCGGCAACGUCCUCAACCUCCAAUGUAUCCCACCACAUGAUGAUGCCUGAAGAGCCUUGGUUUUUUG	0.173
GACCAAUCUGCCCUCAGAGCUCGAGAACAUCUUCGGAUGCAGAGGAGGCAGGCUUCGGUGGCGCGAUAGCGGCAACGUCCUCAACCUCCAAUGCAUCCCACCACAUGAUGAUGCCUCAUGAGCCUUGGUUUUUUG	-0.356
GACCAAUCUGCCCUCAGAGCUCGAGAACAUCUUCGGAUGCAGAGGAGGCAGGCUUCGGUGGCGCGAUAGCGGCAACGUCAUCAACCUCCAAUGCAUCCCACCACAUGAUGAUGCCUGAAGAGCCUUGGUUUUUUG	-5.5
GACCAAUCUGCCCUCAGAGCUCGAGAACAUCUUCGGAUGCAGAGGAGGCAGGCUUCGGUGGCGCGAUAGCGGCAACGUCCUCAACCUCCAAUGCAUCCCAACACAUGAUGAUGCCUGAAGAGCCUUGGUUUUUUG	-0.799
GACCAAUCUGCCCUCAGAGCUCGAGAACAUCUUCGGAUGCAGAGGAGGCAGGCUUCGGUGGCGCGAUAGCGGCAACGUCCUCAACCUCCAAUGCAUCCCAUCACAUGAUGAUGCCUGAAGAGCCUUGGUUUUUUG	-0.7
GACCAAUCUGCCCUCAGAGCUCGAGAACAUCUUCGGAUGCAGAGGAGGCAGGCUUCGGUGGCGCGAUAGCGGCAACGUCCUCAACCUCCAAUGCAUCCCACCACAUGAUGAUGCCUGAAGAGCUUUGGUUUUUUG	1.15
GACCAAUCUGCCCUCAGAGCUCGAGAACAUCUUCGGAUGCAGAGGAGGCAGGCUUCGGUGGCGCGAUAGCGGCAACGUCCUCAACCUCCAAUGCAUCCCACCACAUGAUGAUGACUGAAGAGCCUUGGUCUUGUG	-1.37
GACCAAUCUGCCCUCAGAGCUCGAGAACAUCUUCGGAUGCAGAGGAGGCAGGCUUCGGUGGCGCGAUAGCGGCAACGUCCUCAACCUCCAAUGCAUCCCACCACAUGAUGAUGCCUUAAGAGCCUUGGUUUUUUG	-2.41
GACCAAUCUGCCCUCAGAGCUCGAGAACAUCUUCGGAUGCAGAGGAGGCAGGCUUCGGUGGCGCGAUAGCGGCAACGUCCUCAACCUCCAAUGCAUCCCACCACAUGAUGAUGCCUAAAGAGCCUUGGUUUUUUG	-1.8
GACCAAUCUGCCCUCAGAGCUCGAGAACAUCUUCGGAUGCAGAGGAGGCAGGCUUCGGUGGCGCGAUAGCGGCAACGUCCUCAACCUCCAAUGCAUCCCACCACAUGAUGAUGUCUGAAGAGCCUUGGUUUUUUG	-2.37
GACCAAUCUGCCCUCAGAGCUCGAGAACAUCUUCGGAUGCAGAGGAGGCAGGCUUCGGUGGCGCGAUAGCGGCAACGUCGUCAACCUCCAAUGCAUCCCACCACAUGAUGAUGCCUGAAGAGCCUUGGUCUUUUG	-5.89
GACCAAUCUGCCCUCAGAGCUCGAGAACAUCUUCGGAUGCAGAGGAGGCAGGCUUCGGUGGCGCGAUAGCGGCAACGUCCUCAACCUCCAAUACAUCCCACCACAUGAUGAUGCCUGAAGAGCCUUGGUUUUUUG	-0.585
GACCAAUCUGCCCUCAGAGCUCGAGAACAUCUUCGGAUGCAGAGGAGGCAGGCUUCGGUGGCGCGAUAGCGGCAACGCCCUCAACCUCCAAUGCAUCCCACCACAUGAAGAUGCCUGAAGAGCCUUGGUUUUUUG	-6.55
GACCAAUCUGCCCUCAGAGCUCGAGAACAUCUUCGGAUGCAGAGGAGGCAGGCUUCGGUGGCGCGAUAGCGGCAACGUCCUCAACCUCCAAUGCAUCCCACCACAUGAUGAUGCCUCAAGAGCCUUGGUGUUUUG	-4.4
GACCAAUCUGCCCUCAGAGCUCGAGAACAUCUUCGGAUGCAGAGGAGGCAGGCUUCGGUGGCGCGAUAGCGGCAACGUCCUAAAACUCCAAUGCUUCCCACCACAUGAUGAUGCCUGAAGAGCCUUGGUUUUUUG	-4.18
GACCAAUCUGCCCUCAGAGCUCGAGAACAUCUUCGGAUGCAGAGGAGGCAGGCUUCGGUGGCGCGAUAGCGGCAACGUCCUCAACCUCCAAUGCAUCCCACUACAGGAUGAUGCCUGAAGAGCCUUGGUUUUUUG	-4.73
GACCAAUCUGCCCUCAGAGCUCGAGAACAUCUUCGGAUGCAGAGGAGGCAGGCUUCGGUGGCGCGAUAGCGGCAACGUCCUCAACCUCCAAUGCAUCCCACCACAUGAUGAUGCCUGAAGAGCCUUGGUUUUUUG	-0.25
